From patent US20220356230A1 (published 2022) come the findings set out here.

Assay [1] has as its target Human SARS Coronavirus Spike S1 Subunit Protein (His Tag) (Sino 40150-V08B1) (Human SARS Coronavirus, UniProt P59594 14-667). Kind of assay: Luminex bead binding, antigen on microspheres, antibody supernatant.
The target in assay [2] is T1, MERS-CoV (SARS-CoV-2) Spike Protein S2 (aa 726-1296, His Tag) (Sino 40070-[change]) (MERS-CoV, UniProt K9N5Q8 726-1296).
T1 sequence: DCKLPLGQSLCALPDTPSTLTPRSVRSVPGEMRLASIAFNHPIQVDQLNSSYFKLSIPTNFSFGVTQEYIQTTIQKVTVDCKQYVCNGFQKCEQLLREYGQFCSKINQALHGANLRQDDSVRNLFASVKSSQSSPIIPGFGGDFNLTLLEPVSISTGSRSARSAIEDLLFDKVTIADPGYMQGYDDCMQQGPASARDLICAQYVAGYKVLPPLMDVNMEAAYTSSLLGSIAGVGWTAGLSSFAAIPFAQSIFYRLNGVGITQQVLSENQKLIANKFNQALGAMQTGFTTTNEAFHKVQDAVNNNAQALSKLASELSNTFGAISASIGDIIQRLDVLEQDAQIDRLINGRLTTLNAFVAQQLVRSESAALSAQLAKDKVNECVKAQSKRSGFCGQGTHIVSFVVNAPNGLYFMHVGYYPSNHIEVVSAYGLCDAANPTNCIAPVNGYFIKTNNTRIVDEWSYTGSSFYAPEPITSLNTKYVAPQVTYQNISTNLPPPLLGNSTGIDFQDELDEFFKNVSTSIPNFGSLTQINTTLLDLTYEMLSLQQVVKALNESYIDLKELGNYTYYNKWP
The description is as above.

Assay [3] has as its target T2, MERS-CoV (SARS-CoV-2) Spike Protein (ECD, aa 1-1297, His Tag) (Sino 40069-[change]) (MERS-CoV, UniProt K9N5Q8 18-1297).
T2 sequence: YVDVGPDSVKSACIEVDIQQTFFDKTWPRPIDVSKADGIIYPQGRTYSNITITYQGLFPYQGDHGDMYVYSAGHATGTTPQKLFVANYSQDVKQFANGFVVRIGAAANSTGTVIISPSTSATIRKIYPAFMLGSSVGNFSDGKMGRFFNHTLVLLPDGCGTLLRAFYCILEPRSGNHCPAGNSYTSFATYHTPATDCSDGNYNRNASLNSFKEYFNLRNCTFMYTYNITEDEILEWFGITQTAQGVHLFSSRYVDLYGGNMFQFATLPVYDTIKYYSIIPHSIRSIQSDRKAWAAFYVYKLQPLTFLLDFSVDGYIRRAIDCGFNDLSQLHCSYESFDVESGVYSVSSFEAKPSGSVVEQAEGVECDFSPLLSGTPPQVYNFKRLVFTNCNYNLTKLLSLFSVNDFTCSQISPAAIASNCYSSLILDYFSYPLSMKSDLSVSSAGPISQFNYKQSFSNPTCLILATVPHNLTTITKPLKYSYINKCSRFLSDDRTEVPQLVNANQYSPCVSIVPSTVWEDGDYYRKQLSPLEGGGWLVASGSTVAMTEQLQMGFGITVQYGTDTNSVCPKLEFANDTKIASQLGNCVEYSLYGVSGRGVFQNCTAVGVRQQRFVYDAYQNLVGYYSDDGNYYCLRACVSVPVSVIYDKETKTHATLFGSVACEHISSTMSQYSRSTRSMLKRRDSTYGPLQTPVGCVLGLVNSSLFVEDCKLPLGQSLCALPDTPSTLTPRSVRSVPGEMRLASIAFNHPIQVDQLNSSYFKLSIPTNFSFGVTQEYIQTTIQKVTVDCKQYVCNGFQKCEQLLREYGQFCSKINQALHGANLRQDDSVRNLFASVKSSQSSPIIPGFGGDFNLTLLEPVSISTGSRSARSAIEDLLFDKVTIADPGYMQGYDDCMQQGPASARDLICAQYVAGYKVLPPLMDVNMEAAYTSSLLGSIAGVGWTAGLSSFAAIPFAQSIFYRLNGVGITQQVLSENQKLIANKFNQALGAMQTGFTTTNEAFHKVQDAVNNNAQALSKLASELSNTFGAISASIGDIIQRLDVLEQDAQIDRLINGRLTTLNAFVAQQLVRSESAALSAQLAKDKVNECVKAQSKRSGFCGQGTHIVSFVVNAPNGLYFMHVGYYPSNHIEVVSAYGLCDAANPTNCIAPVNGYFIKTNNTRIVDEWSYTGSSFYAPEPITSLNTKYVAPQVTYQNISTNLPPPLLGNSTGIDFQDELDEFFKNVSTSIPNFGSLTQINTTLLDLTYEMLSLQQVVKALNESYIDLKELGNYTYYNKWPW
The assay is described as above.

The target in assay [4] is T3, MERS-CoV (NCoV/Novel coronavirus) Spike Protein S1 Protein (aa 1-725, His Tag) (Sino 40069-V08B1) (MERS-CoV, UniProt K9N5Q8 18-725).
T3 sequence: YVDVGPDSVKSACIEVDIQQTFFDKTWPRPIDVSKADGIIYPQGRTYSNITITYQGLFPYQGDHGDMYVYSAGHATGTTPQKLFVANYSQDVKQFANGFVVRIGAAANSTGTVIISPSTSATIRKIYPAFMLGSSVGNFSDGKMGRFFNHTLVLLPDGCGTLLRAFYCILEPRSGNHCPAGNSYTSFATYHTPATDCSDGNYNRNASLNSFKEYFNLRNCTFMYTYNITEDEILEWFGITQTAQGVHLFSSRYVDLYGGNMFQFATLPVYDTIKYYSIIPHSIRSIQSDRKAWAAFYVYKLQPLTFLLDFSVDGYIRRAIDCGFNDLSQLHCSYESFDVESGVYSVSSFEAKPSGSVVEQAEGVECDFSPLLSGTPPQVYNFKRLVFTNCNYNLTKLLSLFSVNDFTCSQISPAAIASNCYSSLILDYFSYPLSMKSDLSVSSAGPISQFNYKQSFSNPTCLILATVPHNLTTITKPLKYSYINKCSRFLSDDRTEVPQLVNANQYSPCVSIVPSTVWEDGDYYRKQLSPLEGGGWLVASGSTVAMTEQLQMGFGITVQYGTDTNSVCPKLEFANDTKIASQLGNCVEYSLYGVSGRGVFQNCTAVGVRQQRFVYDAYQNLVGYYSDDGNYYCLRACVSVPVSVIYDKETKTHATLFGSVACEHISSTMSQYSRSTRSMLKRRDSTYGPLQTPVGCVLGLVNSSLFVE
Kind of assay: Luminex bead assay, supernatant.

Assay [5] concerns the target T4, MERS-CoV (NCoV/Novel coronavirus) Spike Protein fragment (RBD, aa 367-606, His Tag) (Sino 40071-V08B1) (MERS-CoV, UniProt K9N5Q8 367-606).
T4 sequence: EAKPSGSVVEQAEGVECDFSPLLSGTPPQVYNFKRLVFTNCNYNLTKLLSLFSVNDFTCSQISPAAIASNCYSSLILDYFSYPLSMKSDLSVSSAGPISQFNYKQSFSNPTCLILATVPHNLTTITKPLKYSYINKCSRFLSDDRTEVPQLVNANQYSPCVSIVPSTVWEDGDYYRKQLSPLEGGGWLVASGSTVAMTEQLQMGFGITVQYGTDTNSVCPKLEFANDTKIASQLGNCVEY
Kind of assay: Luminex bead assay, supernatant.

Substitutions are numbered along the chain they refer to.

B1: mAb10967 (antibody, V domains shown)
VH: EVQLVESGGGLVQPGGSLRLSCAASGFTVSSNYMSWVRQAPGKGLEWVSVIYPGGSTFYADSVKGRFTISRDNSKNTLYLQMNSLRAEDTAVYYCARDQRDFAWGQGTLVTVSS
VL: DIQMTQSPSSLSASVGDRVTITCQASQDISNYLNWYQQKPGKAPKLLIYDASNLETGVPSRFSGSGSGTDFTFTISGLQPEDIATYYCQQYDNLPPTFGQGTRLEIKR
Regarding B1, the MFI in assay [1] amounted to 21 MFI.

B2: mAb10954 (antibody, V domains shown)
VH: EVQLVESGGGLVQPGGSLRLSCAASGITVSSNYMSWVRQAPGKGLEWVSLIYSGGSTYYADSVKGRFTISRDNSKNTLYLQMNSLRVEDTAVYYCARDHGMAAAGYNYWGQGTLVTVSS
VL: B1 VL with S30N, N31K, S76N, G77S, I83F, Y87F, T97A, R103K, L104V
B2 registered an MFI in assay [1] of 15 MFI.

B3: mAb10987 (antibody, V domains shown)
VH: QVQLVESGGGVVQPGRSLRLSCAASGFTFSNYAMYWVRQAPGKGLEWVAVISYDGSNKYYADSVKGRFTISRDNSKNTLYLQMNSLRTEDTAVYYCASGSDYGDYLLVYWGQGTLVTVSS
VL: QSALTQPASVSGSPGQSITISCTGTSSDVGGYNYVSWYQQHPGKAPKLMIYDVSKRPSGVSNRFSGSKSGNTASLTISGLQSEDEADYYCNSLTSISTWVFGGGTKLTVLG
With B3, the MFI in assay [2] turned out to be 23 MFI; in assay [3], 15 MFI.

B4: mAb10989 (antibody, V domains shown)
VH: QVQLVQSGAEVKKPGASVKVSCKASGYIFTGYYMHWVRQAPGQGLEWMGWINPNSGGANYAQKFQGRVTLTRDTSITTVYMELSRLRFDDTAVYYCARGSRYDWNQNNWFDPWGQGTLVTVSS
VL: B3 VL with G31T, Y51F, K55N, N62D, S82A, N91S, L93F, S95T, I96S, W99V
In assay [1], B4 came in with an MFI of 21 MFI.

B5: mAb10966 (antibody, V domains shown)
VH: EVQLVESGGGLVQPGGSLRLSCAASGLTVSSNYMSWVRQAPGKGLEWVSVIYSGGSTFYADSVKGRFTISRDNSKNTLYLQMNSLRPEDTAVYYCAREGRIAATGYGMDVWGQGTTVTVSS
VL: not shown
Regarding B5, the results for the MFI in assay [1], in assay [2] and in assay [3] were 20 MFI, 16 MFI and 16 MFI, respectively.

B6: mAb10971 (antibody, V domains shown)
VH: EVQLVESGGGLIQPGGSLRLSCAASGVTVSSNYMSWVRQAPGKGLEWVSVIYSGGSTFYSDSVKGRFSISRDNSKNTLYLQMNSLRAEDTAVYYCARDLYYYGMDVWGQGTTVTVSS
VL: DIQLTQSPSFLSASVGDRVTITCRASQGISTYLAWYQQKPGKAPKLLIYAASTLQSGVPSRFSGSGSGTEFTLTISSLQPEDFATYYCQQLDSYPGLTFGGGTKVEIKR
B6: the MFI in assay [1] stood at 20 MFI; in assay [2], 13 MFI; in assay [3], 15 MFI.

B7: mAb10965 (antibody, V domains shown)
VH: EVQLVESGGGLIQPGGSLRLSCAASVFTVSYNYMSWVRQAPGKGLEWVSVIYSGGSTYYADSVKGRFTISRDNSKNTLYLQMNSLRAEDTAVYYCARALPGWGGSFEYFDYWGQGTLVTVSS
VL: not shown
In assay [1], B7 showed an MFI of 16 MFI.

B8: mAb10964 (antibody, V domains shown)
VH: QVQLQESGPGLVKPSETLSLTCTVSGGSINNYYWIWIRQPPGKGLEWIGYIYHSGSTNYNPSLKSRVTISVDTSKNQFSLKVSSVTAADTAVYYCANMVRGVYEDDYWGQGTLVTVSS
VL: DIQMTQSPSSLSASVGDRVTITCRASQSISNYLNWYQQKPGKAPKLLIFAASSLRSGVPSRFSGSGSGTDFTLTISSLHPEDFATYYCQQNYNTPLTFGPGTKVDIKR
Consider B8, for which the results for the MFI in assay [1] and in assay [3] were 5190 MFI and 15 MFI, respectively.

B9: mAb10986 (antibody, V domains shown)
VH: EVQLVESGGGLVQPGGSLRLSCAASEFTVSSNYMSWVRQAPGKGLEWVSVIYSGGSTFYADSVKGRFTISRDNSKNTLYLQMNSLRAEDTAVYYCARALPYGDLHFDYWGQGTLVTVSS
VL: QSVLTQPPSVSGAPGQRVTISCTGSSSNIGTGYDVHWYQQLPGTAPKLLIYGNTNRPSGVPDRFSGSKSGTSASLAITGLQAEDEADYYCQSYDSSLSDSYVFGTGTKVTVLG
Consider B9, for which the figures for the “Binding signal (MFI)” value in assay [4] and in assay [5] were 20 MFI and 27 MFI, respectively.

B10: mAb10970 (antibody, V domains shown)
VH: EVQLVESGGGLVQPGGSLRLSCAASGFTVSSNYMSWVRQAPGKGLEWVSVIYSGGSTYYADSVKGRFTISRDNSKNTLYLQMNRLRADDTAVYYCVRDPVGRYYYGMDVWGQGTTVTVSS
VL: not shown
B10: the MFI in assay [2] stood at 16 MFI; in assay [3], 14 MFI.

B11: mAb10969 (antibody, V domains shown)
VH: QVQLVESGGGVVQPGRSLRLSCAASGFTFSSYAMHWVRQAPGKGLEWVAVISYDGSNKYYADSVKGRFTISRDNSKNTLYLQMNSLRAEDTAVYYCARDGRTITMVRGVIDDAFDIWGQGTMVTVSS
VL: not shown
For B11, the MFI in assay [1] is 20 MFI; in assay [2] it was 20 MFI; in assay [3], 16 MFI.
